Tests used:
[1] = target: CD20 on Raji lymphocyte cells and primary CLL cells (human) (UniProt P11836); test: cell-based or functional assay
[2] = target: CD19 on Raji cells, primary CLL cells and melanoma cell lines made to overexpress CD19 (UniProt P15391); test: cell-based or functional assay

Substance | specific killing of Raji cells by YTS cells expressing CD16 (ADCC), 3 hours [1] | specific killing of Raji cells 24 hours after coculture, YTS CAR-CD19 cells (non-irradiated, 1000, 2500 or 3000 cGy) [2] | specific killing of Raji cells by YTS cells expressing CAR-CD19 [2] | specific killing of Raji cells, same day (2-3 hours), YTS CAR-CD19 cells irradiated with 1000 cGy [2] | specific killing of Raji cells, same day (2-3 hours), YTS CAR-CD19 cells irradiated with 2500 cGy [2] | specific killing of Raji cells, same day (2-3 hours), non-irradiated YTS CAR-CD19 cells [2]
Rituximab (anti-CD20) (antibody) | > 60% |  |  |  |  | 
anti-CD19 CAR FMC63-28-3z (FMC63 scFV against CD19, CD28 costimulatory domain, CD3zeta signaling domain; Addgene #135991), expressed on YTS cells (from UniProt P10747 180-220; P20963 52-164) |  | > 55% | > 50% | 25% | 23% | 18%
